Paper doi:10.1101/2020.04.18.045682

Tests used:
[1] = target: Cas10d (Synechocystis sp. PCC 6803); test: affinity purification with mass spectrometry
[2] = target: type I-D Cascade lacking Cas11d (Synechocystis sp. PCC 6803); test: negative-stain electron microscopy, 3D reconstruction

Row | stoichiometry N [1] | stoichiometry N [2] | Substance
1 | 1 |  | Cas5d (natural protein)
2 | 6 |  | Cas7d (natural protein)
3 | 2 | 2 | Cas11d (natural protein)
4 | 1 |  | Cas6d (natural protein)
